Values joined by “and” are separate entries in the source; they are usually repeats but may differ in a detail not shown here. Equal values may be shown once.

In series [1] the target is T1, S. cerevisiae RNA guanylyltransferase Ceg1 (1–459), full length (S. cerevisiae, UniProt Q01159 1-459).
T1 sequence (looked up): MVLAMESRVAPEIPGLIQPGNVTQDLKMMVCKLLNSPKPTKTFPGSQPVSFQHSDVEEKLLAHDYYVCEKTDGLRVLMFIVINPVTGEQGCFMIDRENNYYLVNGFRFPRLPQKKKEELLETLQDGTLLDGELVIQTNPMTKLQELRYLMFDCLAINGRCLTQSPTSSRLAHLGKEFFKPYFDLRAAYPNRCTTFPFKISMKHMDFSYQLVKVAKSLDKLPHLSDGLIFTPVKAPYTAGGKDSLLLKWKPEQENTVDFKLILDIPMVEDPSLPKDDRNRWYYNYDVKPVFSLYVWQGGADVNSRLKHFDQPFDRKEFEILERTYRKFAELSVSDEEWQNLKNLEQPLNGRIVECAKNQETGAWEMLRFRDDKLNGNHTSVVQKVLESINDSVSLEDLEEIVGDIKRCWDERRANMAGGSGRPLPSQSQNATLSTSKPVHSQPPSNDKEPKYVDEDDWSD
Description: SEC.

The series “crystal structure” concerns the molecule itself. Description: crystal structure.

B1: S. cerevisiae RNA triphosphatase Cet1 (241–549) (domain or fragment, UniProt O13297 241-549, looked up)
chain: YRNVPIWAQKWKPTIKALQSINVKDLKIDPSFLNIIPDDDLTKSVQDWVYATIYSIAPELRSFIELEMKFGVIIDAKGPDRVNPPVSSQCVFTELDAHLTPNIDASLFKELSKYIRGISEVTENTGKFSIIESQTRDSVYRVGLSTQRPRFLRMSTDIKTGRVGQFIEKRHVAQLLLYSPKDSYDVKISLNLELPVPDNDPPEKYKSQSPISERTKDRVSYIHNDSCTRIDITKVENHNQNSKSRQSETTHEVELEINTPALLNAFDNITNDSKEYASLIRTFLNNGTIIRRKLSSLSYEIFEGSKKVM
With B1, the “stoichiometry N” value is 2 Cet1 protomers per Ceg1 (2:1) and 1 Cet1 protomers per Ceg1 (2:2) in series [1]; 2 protomers in the series “crystal structure”.

(Values after PMC2877398 (Structure (London, England : 1993), 2010).)
